# Test results as given in the NTF2 design screens of Basanta et al. (2020).
# Experiment: protease stability score; higher = more stable; yeast display proteolysis, trypsin and chymotrypsin;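 also: relative to predicted unfolded state with 0 unfolded-like and 1 meaning tenfold more protease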
row,Sequence,protease stability score
1,DDRDREARKLIQEITHALHTGDEELMEHMLDPSVRTNINGKDIHGMDLFYKWLIELVRRLGADHLNFEVKRVQLYGNKLNTDGHLFVHQGDFTILLNVRWYNLKVNGKWIHESIEIR,1.45
2,DEEDKMAEFFMRLIFRAWLTGDEEELEKFMDPNTKHNLDIDGRNDHQIGRHEIVHHLKHFWRRYDHVQVKIRKYHIQGEKAHLHGHLILFIDGVEIRHNIEIRVVVINGRVHSVTMHIH,1.79
3,TEEENMNEENLDLAVHLMHTGDEEHLFDRLDPHARLEYGDKKYHGREIVEEVLLTLIRELGVDHIRVRRVKFVGDKLHIDSEFTVGDKVFRLHLVARKINGRWWLHSMRVQ,1.34
4,DEEEDVMRKWLQLFLEAFETGDFRLIEEMFDPNTRLDVGDKEYHGRDEIARVIRTLWEEMRFEHFHIHRFDVFNGVANSDTHVVGKIGDKRRDVRVHIILIIVNGKLKKFRIETR,1.71
5,DERESLLEKLLRLWIELLKTGDEDTMLKLADPDAKYHVNGKDFHGWELASRIWFEERERLGIKHVHDHEIRFQGEKTELHGILLFDGVDVKFRIIIIVFNGRLHHVIVERD,1.53
6,SEEEHDTRRAIEIFLRIIMTGNEEDFERLFDPDARSEWNGVELHGREIITHIWLEIFDRFPNIKIEVRVERYRIQGEKVDIDMELIFRVGDKEDSRKTRMHVLKVDGKWTVKLFKIK,2.33
7,DEVEKHLVHLTHRWIHSLLTGDEETISELLDPHARFNQGEWHHHGRELELRYWKEIRFKEMRISRYTAQGDKYHLDTELKGQVDGKEVRVRTHVHLVWVNGRAQSIYVEIH,1.02
8,DEDEELARKFIKKTSEARETGNEDDFMNLADPNVRQDINGVPIIGREEVSRIISHLRIRMEIRIRDVRIVGEKVELDVHIRMDIDFDGQRIHDKRDVHIILVKIDGKWLLHSVNHR,0.536
9,DDEHHDAVRVIEEFVTSVLTGNWEILKELLDPNVKFEIDGREIWGREFVNREIEEIRIRSRMEVRSVRFQGEKMEVDTEYNVDLNIGDKRFHYRRSTRVILEKYDGRWRIQSFHFE,0.284
10,SDLEEEALNLAREWMHNWVTGNEEREEELLDPNVRSDINGRHFHGRERISRMIRYLLDEIRVHDVKEHDMEIQGEKVRIDGRIDGEVNGKRKILVMHFHIVVIDGVIHSVEVRIE,1.18
11,NEDEEIVRERFEEFLDMMFTGDWTSLEKLLDPHYRLDIGDKHHHGREEFIEFVRKIKNLRIDIKRVSVIVIDGRAINHVDGVLHFNGKTEKVHIIVVAKKIDGRWIVERVTIETH,2.08
12,EEEKETERIASEHHLEHLRTGDEETYLRNFDPHVRLDIDGREFHGWEFFRHFLRRMGFKHVRHIQIHHSELFNGRLFFDGTIRFRVGDKEDTFKVEVVDVKFNGRWHIQEFRVK,1.43
13,DEEEKEMKEIMHMLDHWLRTGDEETLNHYLDPNVRLIIFIDGRNLTSIGREESRELWRYVVEEWRIHDMHVTEVRSQGDKAESNTRLKGHVNGVERTLIQHIEVDVVDGRIKRIIIRVH,2.1
14,DKQHEDIRRFMEEFLNAVTTGDEDVLSRLHDPHARFRLHQGEKHDEKHGRESWLKWMSEIRIHHIEIEHIDVQGDYTLMIVHSDGTIDGVRMEWESRIILYVYNGKLKEVEVRIH,0.691
15,HEEEEWFKEVLHEVERLLMTGDWRTLVELLDPNVRININGVEYHGREEAHHKLEETFRRLGFDHIHFQHVEHQGEKVIVHLEVRFNGQSSIIRFVVLKVNGRWFNHSLQIN,1.29
16,KDTKRALDELSELELHADETGDWRVKHELLDPHTRIVIGDKTIHGREDMLTLMKKLQEHWRLKTIEIHHTEVVDGRIDADTILVGIVDGVERELRVRLIILKINGRWIYTSIKFD,1.14
17,SEDNEIIHEMVQLFVDLFFTGDWEMLLSLFDPNVRMIVNGKTIHGRENIAHEVREFLERFKNVRFRDATIEHYSWQGDKLHAQIHIEGEINGRDRHSNVHIHITKIDGKWLITRIEVR,2.39
18,THEEHFDERVARHLHENFLTGNEDIFEHLADPHTRIIIVQGDKMIHFHGWEWFAMKMLEDLHRIKGIRITLRHINIQGDKWILEMKVDIGDKELETEIIIHVINGKIESVRIIIR,1.35
19,DEEEHDVEVAFREYVKSTKTGDEDTLRHLADPHVKIWVDGRDFHGREVYYRLEKKIMEEWRFHDMHVEHVLVQGNKMTLHTRIDGEFDGKKVNLEVIIISVKVDGQWMIHSLEHR,2.22
20,SEDEKMTEMALRLFMHTWRTGDEQVFRHLADPDYRLEVNGVEFIGWEQVTELFSRIVKRFDHMHIHLREFDDINGQADVRGTLILIQGDKEIRMETHIISKKFNGRWTHRRVHFH,0.428
21,SELEKHIKDYFDYIFTLLLTGDWDTLWRMADPNVRFHAEGHEIHGRELWEEFIRKFKNIKVHLHRSSLIGDYLFLDGELEINGRRIRTEIELVIVNGRLTEVSHRLR,0.807
22,SEEKKALDILLKTLIHTHQTGDEHTVRELVDPHVRIDFNGQELHGWEDARRFIVEMRLKHVDLRRVHHQGEKVELDGEVDGTYNGQEFHSKLHIVMRKVNGRWVFSQIEIK,1.17
23,DEEKRLLEEAARHMVDSWRTGDEEVIERMMDPHDKLILYINGVNFDLHGREIVSRWIKEELDEIRIRINVEDIKVFNGVAFVDGELRVEINGREKRVKEEIILFIIDGRLKSHEIRRH,1.23
24,NELHKEYRHMLHILRHIIETGNERALEENMDPNYRIEIGDKRIHGREKALEFWWRLNKRVDHLELHDEHINLFEGHVEIDGRLILKQGEYIEESKTTIFIVKVNGRWVLRSFRVE,1.86
25,TEEEELSELILELTERMIKTGDEKTLHRLMDPNARTVIGDKQDHGMRTIFNIMEELSERIKNARFSLKHIDVDGDKVKIWSTLNYDGRRWEVEIVARKIDGQWRLEEFRIR,0.626

row,Sequence,protease stability score
1,DEEEQHAERVTRRWSRAVLTGNEEELSRLMDPHVRVHINGRDLHGREVAVEQRREQHKELGIDHIEVRLRHLRIQGDKLEVDSRVIIRVNGQEITIDTLLIWRKIDGRWVLHSVHEH,0.348
2,DEDERDARKITDDYLHHLTTGDWNLMDTLADPHMKMDVNGQEIHGRESMVDLMLEWRFEHTDVHDKHVRSYDGKLEIHLDVHSRVHYNGRTDDTRREITLHIHKIDGRWRLEEVRIHYL,0.695
3,DEDTEKLEKMIEELFKLWLTGDEEKLTHLADPNMRVDVNGRDLHGRHLMSSLWRQIRIEDQRLRIRDWEFFDGRVTIHSHITVRGHINGRHEEITHDVRIVVDKINGRWIIREFRIH,1.27
4,DEMTEDSERAMEILVRSILTGDEKDLIELADPNVRLDVNGRDYHGWKNFIKVFKKIMDELRIKDTELKDVRNQGEKAILDTRIHGIINGREIIFESSIDHRKINGVWLIERIIIK,1.1
5,SEEEQEFRLILKEHLDKLETGDEDDLHRLMDPNVRIEIGDKEMHGREHATRFFRELRVEHVHLESYELQGEKVNLHGRMIGDINGKKVDRTVHIFLLKVNGRWIIHSWEVV,2.14
6,SQEEQDTEEFLRHLHEALRTGDEKTLRTLIDPHVRLFINGVHLHGREELVRWLKEFVDRLGIDVSTLHIDDMRIIGNFIELDTKIRWKIGDKTEEVETRFIIVKIDGRWYVRQVEMG,2.6
7,SEHDESIHRHFEKIHESIRTGDEELLRKFLDPNTLLVNEDEKVVGWEQWVEQVRRHLTELGAKHVSFSLHDRRFFDGRLHLDSRVIIEIGDKRLSLETEVINLKFNGRWIITSLTSS,1.14
8,SEDEEHARRFRELWLRIFHTGDWHEFHKLLDPNVRTQVGEFHDIGRESAAEHLELFLKQLGVDHTDITHVELIYIGDKVEVNILLRKEQGDKEYTFRIHIVVRKVNGQWLIKSIHITVE,1.54
9,SEDEERSKLIIDLWEHTQSTGDESLIERLLDPDARSHWDGVHVHGRKATKIMIERIDYVERVDFKEIRTYDGRVEIHGTIDGNFNGRRREMEVIIFVVKVDGKWRIRSIRFT,1.3
10,DELEEISDTALKMFEHVVKTGDWRELEKLLDPNVKIYYNGREYHGREEAVRIWKEILDRFGADHFELRLRHKHVQGDKVSYHIELRLHYDGKTHHTFMRIIFLKVDGKWLEHELHIH,2.38
11,SEEDEHLERLFRDLIDSFVTGDEDSWHQLADPNARLIVGDKTYHGREKISEYWRRMREEIRVEIKVDHVDIQGDKVHSRVTLIVRINGREIRRDTHMLIIVWNGRFKEERIIPR,1.25
12,DEQEEFSHRIMRLLIDLWHTGDWTLIEQYLDPNVRFEVGDKRHHGRESAVKALLELHRRLGVKHFDVKDKDQQGEKLVVVLEDRAENHHMEHELIVVKIDGRWTNHSIISRIH,1.01
13,SEEEDHIRRAIERFSKDQETGDEDSIRELLDPHVRMHVDGQELIGRDLILKFWSELRVHHWEMHSVRVVGDYVDFDVTLDMRVGDKSHRIKATLIILKIDGRWILKLVIID,1.19
14,SEDEELVDHAWETYLRNLLTGDERTLADLIDPHVRVHINGVEFIGREELIKWLSEIRIRTIRVRRRSLINGRVEIIVDLELQVGDKHDRVTIYLIMDKFDGRWIHHTFSVE,0.41
15,SETKKLWKDLADEVLRAWETGNEEEMEKMLDPHTRLHIHINGRDFHAHGRENIIRMMKFTLDFLGIDHFILRRVTYINGVVHIHQQVIINGQESNVRLEVEIIDGVWHEISVDIH,1.44
16,DEEREDVETHLRVLYDLILTGDEEDIRNLLDPHVRLDFNGKDIHGMERVSHHMRELRIERLEIKRWDVVNGRVHMDLHIVFHYGDKRRDTEVHVIMLKIDGRWHLESIHIK,2.21
17,DERDEMTDHALQRVHEMLLTGDERLLSELFDPNARSQIGDKHVHGRDEVAKTFTEQLEKLGVDHVHFRSVDIQGEKLIIHMHFRVGDKHFQVIIIIVKVNGRWYWTNMHVILH,1.1
18,SEEDKIALEILEMTKKLWDTGDEELMVDLVDPHVKVDWDGRERHGREAVEFFFRSIIEKVKNLTIRLTDFRVINGRIEIDSTLKFNGKTLEVRIISTKIDGQWYIESISFR,1.38
19,SEKEEVLREHARRVTEWWLTGDWEEFMKNMDPNARLQIGDKTSHGREEMYRVLKEIEHRLGVDHIEIKDEKVFNGRNHLDTRLHIGDKSINIRIHIDFVNGRLKFVRIEVD,1.18
20,DDEDHELEWMYRIMLRILETGDEDEYKKFADPNTRLLIDFNGRIIDDHGREHVKRSIFEWLEHARIRRKEKKTERHIDGRVILHMRMDVDVNGRRIDRDVLIIIVVINGKFREVDIQYR,0.931
21,SEDEELAESFSRLFFEAEETGDEESLLEMADPNVRVHIDGREIHGREEWIKHLRTFGVERIRIHMRHVEIQGDKLRLDLIVHQGDKTVRIEITIKKVDGRWVVHSIHWS,0.868
22,DEDHKRVREMTDILIELLVTGNEDLLLKLMDPHARERIGDWHSHGRESFVKLLQDLLERIKNVRIEIKDMRIRIYNGVAHSHIDGNNIYNGREIKALWILIIEKINGRWIVHSIELETE,1.45
23,DEHEKEWQELFRLAAHVLETGDEKMLQHLIDPSARTRINGKYTHGWEESARTLHEIRRRLGIDHEEITDHEIQGDKVIIHGRSQVGDKNFTVNIEWIIVNGRLKSVNFTIH,0.55
24,DEETEIEKHAMEHIFRANETGNWREILEMIDPNVKIEYGDKERHGMTIYLEILELWGITKIHLDIQSIRVINGRMDIHGRIVFNGKTHTVDLHLLKVDGRWILTEIRVR,1.3
25,DDNEETVERTFKYFIDSLRTGNEEDMYEMADPNVKIEIGDKRLHGREKFRDHMHELSRRADHIQVHLRIHDIQGEFLHLDVELILDVNGKELRIKVHFVAFKFNGRWRLRSMRQT,1.04
